System: Bacillus subtilis
Assay: cleaved RNA product abundance (RNA/gDNA barcode ratio) relative to median wild-type variant (ratio to wild type); higher = more accumulation of the downstream cleavage product
In short: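 Sequencing of barcodes from gel-selected, reverse-transcribed cleaved RNA and from genomic DNA, with UMI collapsing, yielded a per-construct RNA:gDNA ratio. Scaled to the median construct with the unmutated site, this ratio is the cleaved product abundance. The barcoded reporters (truncated aprE or tetM mRNAs with mutagenized RNase Y cleavage-site windows) were integrated into the B. subtilis chromosome, and cultures grew in LB at 37°C from OD600 0.0003 to 0.3.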

[1] = experiment (reporter, strain, medium): exp 2b: truncated aprE reporter, strain BJT200, cleavage site: cggR-gapA (positions -7 to +36 mutated)
[2] = experiment (reporter, strain, medium): exp 4a: truncated aprE reporter, strain BJT201 with 2% xylose (RNase J1 expressed), cleavage site: cggR-gapA (positions -7 to +36 mutated)
[3] = experiment (reporter, strain, medium): exp 8a: truncated aprE reporter, strain BJT201 with 2% xylose (RNase J1 expressed), cleavage site: glnRA (positions -5 to +31 mutated)
[4] = experiment (reporter, strain, medium): exp 6: tetM reporter, strain 168, cleavage site: cggR-gapA (positions -7 to +36 mutated)

ACAGACGAAGGAGCCGCAAAGAAGTTCTTAAGGGATGAATAATCCCTAAATATAAATATCTCTCACTTATTTAAA
cleaved RNA product abundance [1]: 0.236 | cleaved RNA product abundance [2]: 0.193

CGACATGTCCCGCTTCTTTCATTAATCCGTTACCAACTGTTTTGCTATATACTTTTACCTTTTAAGAGGAGGAAT
cleaved RNA product abundance [3]: 0.145

ACAGACGAAGGAGCCGCAAAGAAGTTATTAAAGGGTGAATAATCCCTCAATATAAATATCTCTCACTTATTTAAA
cleaved RNA product abundance [2]: 0.202

ACAGACGAAGGAGCCGCCAAGATGTTATTAAGGGATGAATAATCCCTCAATATAAATATCTCTCACTTATTTAAA
cleaved RNA product abundance [2]: 0.894

ACAGACGAAGGAGCCGCAAAGAAGTTATTAAGGGATGAATAATCCCCCAATATAAACATCTCTCACTTATTTAAA
cleaved RNA product abundance [2]: 0.291

CGACATGTCCCGCTTCTTTCATTAGTCCGTTAGCAACTGTTTTCCTATATACATTTACCTTTTAAGAGGAGGAAT
cleaved RNA product abundance [3]: 0.352

ACAGACGAAGGAGCCGCAAAGAAGTTAATAAGGGATGAATAATCCCTCATTATAAATATCTCTCACTTATTTAAA
cleaved RNA product abundance [2]: 0.794

ACAGACGAAGGAGCCGCAAAGAAGTTATTAAGGGCTGAACAATCCCTCAATATAAATATCTCTCACTTATTTAAA
cleaved RNA product abundance [2]: 0.156

CGACATGTCCCGCTTCTTTCATTAATTCGTTAGCAACTGTCTTGCTATATACATTTACCTTTTAAGAGGAGGAAT
cleaved RNA product abundance [3]: 0.981

CGACATGTCCCGCTTCTTTCATTAATCCGTTAGAAAATGTTTTGCTATAAACATTTACCTTTTAAGAGGAGGAAT
cleaved RNA product abundance [3]: 0.166

ACAGACGAAGGAGCCGCAAAGAACTTTTTAAGGGATGAATAATCCCTCAATATAAATATCTCTCACTTATTTAAA
cleaved RNA product abundance [1]: 0.204

ACAGACGAAGGAGCCGCAAAGAAGGTATTAAGAGATGAATAATCCCTCAATATAAATATCTCTCACTTATTTAAA
cleaved RNA product abundance [2]: 0.171

ACAGACGAAGGAGCCGCAAAGAAGTTATTAAGGGCTGAATAATCCCTCTATATAAATATCTCTCACTTATTTAAA
cleaved RNA product abundance [2]: 0.255

ACAGACGAAGGAGCCGCAAAGAAGTTATTAAGGGATGAAGATTCCCTCAATATAAATATCTCTCACTTATTTAAA
cleaved RNA product abundance [2]: 0.68

ACAGACGAAGGAGCCGCAAAGAAGTTATTCAGGGATGAATAATTCCTCAATATAAATATCTCTCACTTATTTAAA
cleaved RNA product abundance [2]: 0.513

ACAGACGAAGGAGCCGCAAAGAAGTTATTAATGGGTGAATAATCCCTCAATATAAATATCTCTCACTTATTTAAA
cleaved RNA product abundance [2]: 0.188

ACAGACGAAGGAGCCGCAAACAAGTTATTAAGGGATGAATAATCCCTCAATAAAAATATCTCTCACTTATTTAAA
cleaved RNA product abundance [2]: 0.1

ACAGACGAAGGAGCCGCAAAGAAGTTATTAAGGGATGAATACTCCCTCAATAGAAATATCTCTCACTTATTTAAA
cleaved RNA product abundance [2]: 0.115

CGACATGTCCCGCTTCTTTCATTATTCCGTTAGCAACTGTTTTACTATATACATTTACCTTTTAAGAGGAGGAAT
cleaved RNA product abundance [3]: 0.812

CGACATGTCCCGCTTCTTTCATTAATCCTTTAGCAACTGTTTTGATATATACATTTACCTTTTAAGAGGAGGAAT
cleaved RNA product abundance [3]: 0.374

ACAGACGAAGGAGCCGCAAAGAAGTTATTATGGGATGAATAATCCCTCAATATAAATACCTCTCACTTATTTAAA
cleaved RNA product abundance [1]: 0.348 | cleaved RNA product abundance [2]: 0.44

ACAGACGAAGGAGCCGCAAAGAAGTTATTAAGGGATGACTAAACCCTCAATATAAATATCTCTCACTTATTTAAA
cleaved RNA product abundance [1]: 0.197 | cleaved RNA product abundance [2]: 0.303

ACAGACGAAGGAGCCGCAAAGAAGTTATTAAGGGATGAATAATCTCTCAATATAAATTTCTCTCACTTATTTAAA
cleaved RNA product abundance [2]: 0.708

ACAGACGAAGGAGCCGCAAAGAAGTTATTAAGGGATGAATAATCCCTAAATATAAATAACTCTCACTTATTTAAA
cleaved RNA product abundance [2]: 0.442

ACAGACGAAGGAGCCGCAAAGAAGTTATTTAGGGATGAATAACCCCTCAATATAAATATCTCTCACTTATTTAAA
cleaved RNA product abundance [2]: 0.288

ACAGACGAAGGAGCCGCAAAGAAGTTATTAAGGGATAAATAATACCTCAATATAAATATCTCTCACTTATTTAAA
cleaved RNA product abundance [1]: 0.117 | cleaved RNA product abundance [2]: 0.0789

ACAGACGAAGGAGCCGCAAAGAAGTGATTAATGGATGAATAATCCCTCAATATAAATATCTCTCACTTATTTAAA
cleaved RNA product abundance [1]: 0.0996 | cleaved RNA product abundance [2]: 0.108

ACAGACGAAGGAGCCGCAAAGAAATTATTTAGGGATGAATAATCCCTCAATATAAATATCTCTCACTTATTTAAA
cleaved RNA product abundance [2]: 0.718

ACAGACGAAGGAGCCGCAAATAAGTTATTCAGGGATGAATAATCCCTCAATATAAATATCTCTCACTTATTTAAA
cleaved RNA product abundance [2]: 1.09

ACAGACGAAGGAGCCGCAAAGAAGTTATTAAGGGATGAATAATCCTCAATATAAATATCTCTCACTTATTTAAAG
cleaved RNA product abundance [1]: 0.205 | cleaved RNA product abundance [2]: 0.309

ACAGACGAAGGAGCCGCAAAGAAGTTATTACGCGATGAATAATCCCTCAATATAAATATCTCTCACTTATTTAAA
cleaved RNA product abundance [2]: 0.0746

CGACATGTCCCGCTTCTTTCATTAATCTGTTAGCAACTGTTTTGCTATATACATTTATCTTTTAAGAGGAGGAAT
cleaved RNA product abundance [3]: 0.969

ACAGACGAAGGAGCCGCAAAGAAGTTTTTAAGGGATGAATAATCCCGCAATATAAATATCTCTCACTTATTTAAA
cleaved RNA product abundance [2]: 0.137

ACAGACGAAGGAGCCGCAAAGAAGTTCTTAAGGGATGAATAATCCCTCAATATAAATATCTCTCACTTATTTAAA
cleaved RNA product abundance [1]: 0.168 | cleaved RNA product abundance [2]: 0.254 | cleaved RNA product abundance [4]: 0.299

ACAGACGAAGGAGCCGCAAAGAAGTAATTAAGGGATGAATAATCCCTCAATATAAATATCTCTCACTTATTTAAA
cleaved RNA product abundance [1]: 0.241 | cleaved RNA product abundance [2]: 0.333 | cleaved RNA product abundance [4]: 0.32

ACAGACGAAGGAGCCGCTAAGAAGTTATTAAGGGAGGAATAATCCCTCAATATAAATATCTCTCACTTATTTAAA
cleaved RNA product abundance [2]: 0.993

ACAGACGAAGGAGCCGCAAGGAAGTTATAAAGGGATGAATAATCCCTCAATATAAATATCTCTCACTTATTTAAA
cleaved RNA product abundance [2]: 0.578

ACAGACGAAGGAGCCGCAAAGTCGTTATTAAGGGATGAATAATCCCTCAATATAAATATCTCTCACTTATTTAAA
cleaved RNA product abundance [2]: 0.9

ACAGACGAAGGAGCCGCAAAGATGTTATTAAGGGATGAATAATCCCTGAATATAAATATCTCTCACTTATTTAAA
cleaved RNA product abundance [2]: 0.628

ACAGACGAAGGAGCCGCAAAGAAGTTATTAAGGGTTGAATAATCCCTCAAAATAAATATCTCTCACTTATTTAAA
cleaved RNA product abundance [2]: 0.222

CGACATGTCCCGCTTCTTTCATTAATCCGTTTGCAACTGTTTTGCTATATACATTTAACTTTTAAGAGGAGGAAT
cleaved RNA product abundance [3]: 0.827

ACAGACGAAGGAGCCGCAAAGATGTTATTAAGGGATGAATATTCCCTCAATATAAATATCTCTCACTTATTTAAA
cleaved RNA product abundance [1]: 0.623 | cleaved RNA product abundance [2]: 0.556

ACAGACGAAGGAGCCGCAAAGAAGTTATTAAGGGATGATTAATGCCTCAATATAAATATCTCTCACTTATTTAAA
cleaved RNA product abundance [1]: 0.117

ACAGACGAAGGAGCCGCAAAGAAGTTATCAACGGATGAATAATCCCTCAATATAAATATCTCTCACTTATTTAAA
cleaved RNA product abundance [2]: 0.15

CGACATGTCCCGCTTCTTTCATTAATCCTTCAGCAACTGTTTTGCTATATACATTTACCTTTTAAGAGGAGGAAT
cleaved RNA product abundance [3]: 0.478

CGACATGTCCCGCTTCTTTCATTAATCCGTTTGCAACTGTTTTGCTATATACAATTACCTTTTAAGAGGAGGAAT
cleaved RNA product abundance [3]: 0.478

CGACATGTCCCGCTTCTTTCATTAATCCGTTAGCAACTGTTTGGCTATATATATTTACCTTTTAAGAGGAGGAAT
cleaved RNA product abundance [3]: 0.546

CGACATGTCCCGCTTCTTTCATTAATCTGTTAGCTACTGTTTTGCTATATACATTTACCTTTTAAGAGGAGGAAT
cleaved RNA product abundance [3]: 0.743

ACAGACGAAGGAGCCGCAAAGAAGTAATTAAGGGATGAACAATCCCTCAATATAAATATCTCTCACTTATTTAAA
cleaved RNA product abundance [1]: 0.181

ACAGACGAAGGAGCCGCAAAGAAGTTATTAAGGGATGAATAATACCTTAATATAAATATCTCTCACTTATTTAAA
cleaved RNA product abundance [2]: 0.424

ACAGACGAAGGAGCCGCAAAGATGTTATTAAGGGATGAATAATCCCTCATTATAAATATCTCTCACTTATTTAAA
cleaved RNA product abundance [2]: 0.411

CGACATGTCCCGCTTCTTTCATTAATCCGTTAGCAACTGTTTTGCTATAAATATTTACCTTTTAAGAGGAGGAAT
cleaved RNA product abundance [3]: 1.49

ACAGACGAAGGAGCCGCAAAGAAGTTTTTAAGGGATGAATAATCCCTCAATATACATATCTCTCACTTATTTAAA
cleaved RNA product abundance [2]: 0.364

CGACATGTCCCGCTTCTTTCATTAATCCGTTAGCAACTCTTTTTCTATATACATTTACCTTTTAAGAGGAGGAAT
cleaved RNA product abundance [3]: 0.642

ACAGACGAAGGAGCCGCAAAGAAGTTATTAAAGGATGAATAATCCCTCAATAGAAATATCTCTCACTTATTTAAA
cleaved RNA product abundance [1]: 0.111 | cleaved RNA product abundance [2]: 0.107

ACAGACGAAGGAGCCGCAAATAAATTATTAAGGGATGAATAATCCCTCAATATAAATATCTCTCACTTATTTAAA
cleaved RNA product abundance [1]: 0.807 | cleaved RNA product abundance [2]: 0.801

ACAGACGAAGGAGCCGCAAAGAATTTATTAAGGCATGAATAATCCCTCAATATAAATATCTCTCACTTATTTAAA
cleaved RNA product abundance [1]: 0.1 | cleaved RNA product abundance [2]: 0.111

CGACATGTCCCGCTTCTTTCATTAATCTGTTAGCAACTGTTTTGCTATATACATTTACTTTTTAAGAGGAGGAAT
cleaved RNA product abundance [3]: 1.68

CGACATGTCCCGCTTCTTTCATTAATCCGTTAGCAACTGTTCTGCTATATACATTTACCTTTTAAGAGGAGGAAT
cleaved RNA product abundance [3]: 0.446

ACAGACGAAGGAGCCGCAAAGAAGTTATTAAGGGATGAAAAATCCCTCAATATGAATATCTCTCACTTATTTAAA
cleaved RNA product abundance [2]: 0.151

ACAGACGAAGGAGCCGCAAAGATGTTATTAAGGGATGAATAATCCCTCGATATAAATATCTCTCACTTATTTAAA
cleaved RNA product abundance [1]: 0.352
